The record followed here is the supplement of paper PMC10567573.

The data set can be described thus: protein stability index of a GFP-peptide fusion (GPS, HEK-293T) (PSI 1-6); higher = more stable.
Setting [1] is: treatment: DMSO, c terminus: a fixed tail appended.
[2] abbreviates: treatment: MLN4924 1 uM, 8 h, c terminus: a fixed tail appended.

± gives the standard deviation.
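Also: 24-mer peptide tiles fused after GFP, lentivirally expressed, FACS-sorted into six equal bins by GFP/DsRed ratio, decoded by Illumina sequencing, PSI is the read-weighted mean bin number.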

Take RFEEPKGPPARQEDSKELRALRKM [CBY2]: the protein stability index is, setting by setting: under setting [1], 4.91 ± 0.43; under setting [2], 4.99 ± 0.2.

Regarding QRITKQLEKWMQKNVEENLYSSSL [GLT8D2], the protein stability index by setting is: under setting [1], 2.89 ± 0.28; under setting [2], 3.03 ± 0.21.

Consider YAATTTPFTPLHIKVKPKRVGIFL [TRIM39], for which the protein stability index runs as follows: under setting [1], 2.52 ± 0.58; under setting [2], 2.81 ± 1.1.

Take WFSDPSDTALLNLLPMLDALRFTA [CTDNEP1]: the protein stability index was found to be 2.73 ± 0.58 under setting [1] and 2.98 ± 0.67 under setting [2].

In the case of VEKEEEPDPEPPPVTPQVGEGRKS [SMG5], the protein stability index turned out to be 5.48 ± 0.13 under setting [1] and 5.53 ± 0.21 under setting [2].

For the sequence KKLKKDDKKKELQELNELFKPVVA [ZC3H15], the protein stability index by setting is: under setting [1], 4.18 ± 0.48; under setting [2], 4.15 ± 0.34.

GHSQEKTHSREKSSQESGEEAGSQ [CHGB] yielded a protein stability index under setting [1] of 5.52 ± 0.56 and a protein stability index under setting [2] of 5.45 ± 0.33.

Take NLAQDPQCKEWQVLMCGFPFLLLF [TMEM120A]: the protein stability index worked out at 2.5 ± 0.61 under setting [1] and 2.35 ± 0.61 under setting [2].

On to GFFDVLGNDRRREWAALGNMSKED [ACBD3], for which the protein stability index runs as follows: under setting [1], 3.85 ± 0.44; under setting [2], 4.551 ± 0.018.

KLPATMPEPVYFHCAAVTPAGCMY [KLHDC10]: the protein stability index is, setting by setting: under setting [1], 2.27 ± 0.23; under setting [2], 2.08 ± 0.19.

For the sequence LLGEPLAGPELDEMLREVDLNGDG [CABP4], the protein stability index runs as follows: under setting [1], 5.18 ± 0.21; under setting [2], 5.36 ± 0.21.

As for PFHEMFVSRGGHGQQDLFRVLKAY [TBC1D10A], the protein stability index is, setting by setting: under setting [1], 2.25 ± 0.18; under setting [2], 2.42 ± 0.085.

TEFRKGAQSLPGPCAAAREGRLER [IRX6]: the protein stability index was 4.53 ± 0.17 under setting [1] and 4.62 ± 0.21 under setting [2].

As to HVTVENVQELLPAACLLQLKGVKQ [KLHL12], the protein stability index by setting is: under setting [1], 2.96 ± 0.33; under setting [2], 3.15 ± 0.11.

As for TALLGGPRRCHSAPPQGSCGDELP [PLEKHN1], the protein stability index is, setting by setting: under setting [1], 4.1 ± 0.3; under setting [2], 4.45 ± 0.47.

As to MSLEPQNGTYAGPAPAFQPFFFTG [ANKRD40], the protein stability index is, setting by setting: under setting [1], 2.29 ± 0.35; under setting [2], 2.15 ± 0.31.

Consider RKDPYGKPVDMWACGVILYILLVG [CAMK2D], for which the protein stability index is 2.53 ± 0.12 under setting [1] and 3.04 ± 1.1 under setting [2].

On to SAAHEVELQRQKEAEKLERQLALP [NOP53], for which the protein stability index reads like this: under setting [1], 4.99 ± 0.33; under setting [2], 5.19 ± 0.23.

For HTQAENAEFMRNFQKGQVTRDGFK [HMOX1], the protein stability index is, setting by setting: under setting [1], 4.5 ± 0.17; under setting [2], 4.54 ± 0.23.

Take LLNLVDHTEVVRDLTFAPDGSLIL [WSB1]: the protein stability index under setting [1] was determined as 2.24 ± 0.13 and the protein stability index under setting [2] was 2.16 ± 0.16.

For NFSNYYVAHPPVTYSQPYPTWLPC [TENT5C], the protein stability index by setting is: under setting [1], 2.46 ± 0.5; under setting [2], 2.17 ± 0.098.

For EVLLASLANPVLESTPVGTVVGLF [PCDHGC5], the protein stability index reads like this: under setting [1], 2.53 ± 0.51; under setting [2], 2.33 ± 0.43.

With NEKEKALQAQVQYQQQHEQQKKDL [SASS6], the protein stability index was 5.66 ± 0.2 under setting [1] and 5.48 ± 0.5 under setting [2].

In the case of GAHSNAPITAHAEVEVVEEAKCCC [CSNK1G1], the protein stability index stood at 4.79 ± 0.22 under setting [1] and 5.23 ± 0.21 under setting [2].

For NSLLEEETILHFFVQILLALHHVH [NEK8], the protein stability index worked out at 2.38 ± 0.11 under setting [1] and 2.33 ± 0.35 under setting [2].

For the sequence GFLPWLMNEVEKTMEYSMVGRTVL [RSPH3], the protein stability index reads like this: under setting [1], 2.8 ± 0.54; under setting [2], 2.94 ± 0.41.

Consider FDFERSGLQHAPEPDAADGPYDPN [SMAD6], for which the protein stability index is 5.37 ± 0.29 under setting [1] and 5.5 ± 0.41 under setting [2].

As to VNKVCGAACSSKRSPIIDVKNDRD [SERPINB5], the protein stability index runs as follows: under setting [1], 3.77 ± 0.33; under setting [2], 3.89 ± 0.15.

For the sequence RQDSPSPDFYKQSSPNLQVSSDGT [PCDHGC5], the protein stability index is 4.86 ± 0.34 under setting [1] and 4.88 ± 0.18 under setting [2].

For the sequence QWGAEPEGSCYQTFRQYCGAACTC [RNF208], the protein stability index runs as follows: under setting [1], 3 ± 0.47; under setting [2], 3.06 ± 0.34.

For MINLRRLLLSHIHASSYISPEKEE [PRAME], the protein stability index is 2.41 ± 0.26 under setting [1] and 2.63 ± 0.57 under setting [2].

With SILNSCEDPVPGMLFFLPPGQHLS [FBXO34], the protein stability index is, setting by setting: under setting [1], 2.46 ± 0.2; under setting [2], 2.41 ± 0.22.

As for CLRKYGNANVWKYFTDLFDYLPLT [PPP2CA], the protein stability index came to 2.4 ± 0.57 under setting [1] and 2 ± 0.31 under setting [2].

Consider DNHMSDKDESCYDNAEAAFSDDEE [INTS3], for which the protein stability index was found to be 5.55 ± 0.18 under setting [1] and 5.29 ± 0.38 under setting [2].

Turning to QKDLIMKVENLTLKNHFQSVLEQL [TAF7L], the protein stability index is, setting by setting: under setting [1], 2.66 ± 0.2; under setting [2], 2.4 ± 0.29.

YAVTPLPWCPHLVAVCPIPAAGLD [HDAC6] yielded a protein stability index under setting [1] of 2.99 ± 0.49 and a protein stability index under setting [2] of 2.33 ± 0.48.

Sequence NFSVDRWERKEGGGGISCVLQDGC [CPOX] yielded a protein stability index under setting [1] of 3.8 ± 0.2 and a protein stability index under setting [2] of 3.8 ± 0.33.

LLNPNLKDTVICAMKITQEPQGLG [SPACA3] came in with a protein stability index under setting [1] of 2.4 ± 0.4 and a protein stability index under setting [2] of 2.51 ± 0.21.

The sequence DKSDQSLPNASADSLGGSQEMVQR [TRAF3IP2] gave a protein stability index under setting [1] of 5.36 ± 0.17 and a protein stability index under setting [2] of 5.33 ± 0.34.

Take HEEVYFEPSSSKDSDENSKPSVDT [MIA2]: the protein stability index under setting [1] was 5.62 ± 0.33 and the protein stability index under setting [2] was determined as 5.48 ± 0.31.

Take KQNKTPLDKSTTGVSEILLKTQMK [FEM1B]: the protein stability index is 4.36 ± 0.15 under setting [1] and 4.2 ± 0.2 under setting [2].

As for PVSKPGALRRSLSRSMSQEAQRG [TCAP], the protein stability index (treatment: DMSO, c terminus: native) was found to be 3.19 ± 0.23 and the protein stability index (treatment: MLN4924 1 uM, 8 h, c terminus: native) is 3.2 ± 0.37.
